# Publication PMC4597109 (Structure(London, England:1993), 2015)
# Target: the molecule itself
# Test: cryo-EM structure
protein,measurement,value
"Barley stripe mosaic virus coat protein, in wild-type virions (wtBSMV) (natural protein) MPNVSLTAKGGGHYIEDQWDTQVVEAGVFDDWWVHVEAWNKFLDNLRGINFSVASSRSQVAEYLAALDRDLPADVDRRFAGARGQIGSPNYLPAPKFFRLDKRTIAELTRLSRLTDQPHNNRDIELNRAKRATTNPSPPAQAPSENLTLRDVQPLKDSALHYQYVLIDLQSARLPVYTRKTFERELALEWIIPDAEEA",binding result,binds
